Patent publication US20180362582A1 (SOCPRA SCIENCES SANT ET HUMAINES S E C, published 2018)
Numbered stars: 1 amine (or outer) side, 2 acyl side, 3 side chain; on linkers, the order of the positions; unused ones are H or OH. Bridge positions count the residues as written; N and C are the ends. Square brackets hold non-standard residues; d marks the D form. Ends that are not written are not given here. * marks the point of attachment. nonenoic acid = non-8-enoic acid residue (acyl cap with no amine) whose terminal alkene closes the ring by metathesis with the o-allyl-tyrosine, C=CCCCCCCC(=O)*; Tyr(3-All) = 3-allyl-tyrosine (allyl on ring carbon ortho to the phenol OH), C=CCc1cc(C[C@H](N[*:1])C(=O)[*:2])ccc1O[*:3]; OctenylA = alpha-methyl-octenylalanine = 2-(7-octenyl)alanine; 6‑(allylamino)hexanoyl = C=CCNCCCCCC(=O)*

T1: rat NTS2-YFP receptor (rat, UniProt Q63384 1-416)
T1 construct: whole, on cells; Used as cell membranes of transfected DRG-F11 cells; also called rNTS2-YFP; rNTS2
T1 sequence (Q63384 whole entry, looked up): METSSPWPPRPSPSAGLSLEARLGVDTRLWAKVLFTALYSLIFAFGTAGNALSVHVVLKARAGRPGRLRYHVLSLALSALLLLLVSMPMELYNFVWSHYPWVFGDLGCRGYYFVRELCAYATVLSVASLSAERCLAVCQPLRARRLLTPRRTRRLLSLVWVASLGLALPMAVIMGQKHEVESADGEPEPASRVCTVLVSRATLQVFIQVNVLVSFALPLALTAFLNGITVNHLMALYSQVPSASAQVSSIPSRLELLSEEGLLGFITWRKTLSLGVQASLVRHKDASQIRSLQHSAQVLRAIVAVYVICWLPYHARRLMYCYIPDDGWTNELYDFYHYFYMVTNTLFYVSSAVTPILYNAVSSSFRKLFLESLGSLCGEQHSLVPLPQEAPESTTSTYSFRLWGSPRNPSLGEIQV

B1: NT 8-13 RRPYIL (peptide)
peptide: RRPYIL
notes: also called neurotensin (8-13)
B2: 10 c[K(pentenyl)KPY(All)]IL (peptide)
peptide: XKPXIL
modifications: residue 1 is N-pentenyl-lysine; Tyr is o-allyl-tyrosine; the two joined by ring-closing metathesis; 25 ring atoms
notes: also called compound 10
B3: 9 c[K(butenyl)KPY(All)]IL (peptide)
peptide: XKPXIL
modifications: residue 1 is N-butenyl-lysine; Tyr is o-allyl-tyrosine; the two joined by ring-closing metathesis; 24 ring atoms
notes: also called compound 9
B4: 3 c[OctenylAKPY(All)]IL (peptide)
peptide: [OctenylA]KPXIL
modifications: staple 1-4; not fully specified (residue 4); printed as 3 c[OctenylAKPY(All)]IL
notes: Diastereoisomer of compound 12; also called compound 3
B5: 1-M (or 1) c[nonenoic acid KPY(All)]IL (peptide)
peptide: {nonenoic acid}-KP[Tyr(3-All)]IL
modifications: staple (positions not given here); not fully specified (bridges)
notes: Macrocycle; E and Z isomers were not separated; also called compound 1
B6: 6 c[aminohex-6-enoic acid(All)KPY(All)]IL (peptide)
peptide: {6‑(allylamino)hexanoyl}-KP[Tyr(3-All)]IL
modifications: staple (positions not given here); not fully specified (bridges)
notes: also called compound 6

How the values were obtained:
rat NTS2-YFP receptor [1] = target: rat NTS2-YFP receptor (rat, UniProt Q63384 1-416); assay: displacement of radiolabeled neurotensin from rNTS2-YFP membranes by a single 1 µM dose
Experimental: (§1) DRG-F11 cells were cultured in DMEM supplemented with 10% FBS, 100 U/mL penicillin, 100 μg/mL streptomycin, and 20 mM HEPES. DRG-F11 were seeded at 2.2×10⁶ cells in a 10 cm Petri dish and transfected 24 h after plating with 10 μg of DNA coding for the rat NTS2-YFP receptor using Xtreme Gene™ HP as a transfection agent. Membrane preparation was conducted 48 h after transfection, as described below.
(§2) Transfected cells expressing the rNTS2-YFP receptor were used 48 h after transfection. Membranes were prepared by scraping cells off the culture dish with 50 mM Tris ph 7.5 and centrifuged at 15,000 g for 5 min at 4° C. The pellet was resuspended in 10 mM Tris, 1 mM EDTA pH 7.5 and sonicated for 30 s prior to be centrifugated at 15,000 g for 30 min at 4° C. The pellet was then re-suspended in binding 9 buffer. […] All other steps in binding experiments were unchanged comparing to the one using the NTS1 receptor.

rat NTS2-YFP receptor [2] = target: T1, rat NTS2-YFP receptor; assay: as above
Experimental: as §1, §2

rat NTS2-YFP receptor [3] = target: T1, rat NTS2-YFP receptor; assay: competitive radioligand binding, 125I-[Tyr3]-NT, DRG-F11 membranes expressing rNTS2-YFP
Experimental: as §1, §2

hNTS1 receptor [4] = target: T2, hNTS1 receptor (human (printed as hNTS1), UniProt P30989 1-418); assay: competitive radioligand binding, 125I-[Tyr3]-NT, CHO-K1 membranes expressing hNTS1; Ki by Cheng-Prusoff
T2 construct: whole, on cells; also called neurotensin 1 (NTS1) receptor

hNTS1 receptor [5] = target: T2, hNTS1 receptor; assay: competitive radioligand binding, 125I-[Tyr3]-NT, CHO-K1 membranes expressing hNTS1
[6] = target: hNTS1-Green fluorescent protein 10(GFP10) (human (printed as hNTS1), UniProt P30989 1-418); assay: cell-based or functional assay
hNTS1 receptor [7] = target: T2, hNTS1 receptor; assay: cell-based or functional assay

T2 sequence (P30989 whole entry): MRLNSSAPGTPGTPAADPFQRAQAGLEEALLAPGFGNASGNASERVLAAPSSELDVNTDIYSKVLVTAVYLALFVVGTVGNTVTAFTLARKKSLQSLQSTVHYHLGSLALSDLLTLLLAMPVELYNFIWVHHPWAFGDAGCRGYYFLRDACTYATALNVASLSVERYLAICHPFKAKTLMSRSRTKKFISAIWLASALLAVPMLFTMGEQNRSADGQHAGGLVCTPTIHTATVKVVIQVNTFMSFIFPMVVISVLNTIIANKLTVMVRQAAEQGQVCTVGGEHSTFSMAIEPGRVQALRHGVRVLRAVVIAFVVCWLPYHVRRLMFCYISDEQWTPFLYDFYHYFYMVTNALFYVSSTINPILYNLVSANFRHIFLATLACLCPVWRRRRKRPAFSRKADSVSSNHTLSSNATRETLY
Sequence of hNTS1-Green fluorescent protein 10(GFP10) (P30989 whole entry): as above

% displ at 1 µM (rat NTS2-YFP receptor [2]) [%]	IC50 (rat NTS2-YFP receptor [3]) [nM]	Ki (hNTS1 receptor [4]) [nM]	EC50 β-arr1 [6] [nM]	other results	Binder
–	–	–	–	% displ at 1 µM (rat NTS2-YFP receptor [1]): 100%	B1
105	128	–	–	–	B2
104	47.2	–	–	–	B3
96	–	–	–	–	B4
–	–	5600	1500	IC50 (hNTS1 receptor [5]): 394 nM; EC50 G13 (hNTS1 receptor [7]): 433 nM	B5
93	2300	656	96	–	B6
